Reference: US20080021198
Numbering of substitutions follows the chain as printed. Numbers in names are those of the source.

B1: trypsin-resistant structural core of PME (protein)
chain 1: RDFSPVPWSQYFESMEDVEVENETGKDTFRVYKSGSEGPVLLLLHGGGHSALSWAVFTAAIISRVQCRIVALDLRSHGETKVKNPEDLSAETMAKDVGNVVEAMYGDLPPPIMLIGHSMGGAIAVHTASSNLVPSLLGLCMIDVVEGTAMDALNSMQNFLRGRPKTFKSLENAIEWSVKSGQIRNLESARVSMVGQVKQCEGITSPEGSK
chain 2: KEDDMETKKDHPYTWRIELAKTEKYWDGWFRGLSNLFLSCPIPKLLLLAGVDRLDKDLTIGQMQGKFQMQVLPQCGHAVHEDAPDKVAEAVATFLIRHRFAEPIGGFQCVFPGC
B2: PME S156A mutant (protein)
chain: MSALEKSMHLGRLPSRPPLPGSGGSQSGAKMRMGPGRKRDFSPVPWSQYFESMEDVEVENETGKDTFRVYKSGSEGPVLLLLHGGGHSALSWAVFTAAIISRVQCRIVALDLRSHGETKVKNPEDLSAETMAKDVGNVVEAMYGDLPPPIMLIGHAMGGAIAVHTASSNLVPSLLGLCMIDVVEGTAMDALNSMQNFLRGRPKTFKSLENAIEWSVKSGQIRNLESARVSMVGQVKQCEGITSPEGSKSIVEGIIEEEEEDEEGSESISKRKKEDDMETKKDHPYTWRIELAKTEKYWDGWFRGLSNLFLSCPIPKLLLLAGVDRLDKDLTIGQMQGKFQMQVLPQCGHAVHEDAPDKVAEAVATFLIRHRFAEPIGGFQCVFPGC
B3: PME S156C mutant (protein)
chain: B2 chain with A156C
B4: full-length PP2A methyl esterase (PME) (protein)
chain: B2 chain with A156S
B5: PME S156T mutant (protein)
chain: B2 chain with A156T

Molecular target: methylated PP2A A-C hetero-dimer (bovine brain, methylated in vitro with PMT and H^3-SAM), Q32PI5
Sequence (Q32PI5 2-589, chain 1 of 2): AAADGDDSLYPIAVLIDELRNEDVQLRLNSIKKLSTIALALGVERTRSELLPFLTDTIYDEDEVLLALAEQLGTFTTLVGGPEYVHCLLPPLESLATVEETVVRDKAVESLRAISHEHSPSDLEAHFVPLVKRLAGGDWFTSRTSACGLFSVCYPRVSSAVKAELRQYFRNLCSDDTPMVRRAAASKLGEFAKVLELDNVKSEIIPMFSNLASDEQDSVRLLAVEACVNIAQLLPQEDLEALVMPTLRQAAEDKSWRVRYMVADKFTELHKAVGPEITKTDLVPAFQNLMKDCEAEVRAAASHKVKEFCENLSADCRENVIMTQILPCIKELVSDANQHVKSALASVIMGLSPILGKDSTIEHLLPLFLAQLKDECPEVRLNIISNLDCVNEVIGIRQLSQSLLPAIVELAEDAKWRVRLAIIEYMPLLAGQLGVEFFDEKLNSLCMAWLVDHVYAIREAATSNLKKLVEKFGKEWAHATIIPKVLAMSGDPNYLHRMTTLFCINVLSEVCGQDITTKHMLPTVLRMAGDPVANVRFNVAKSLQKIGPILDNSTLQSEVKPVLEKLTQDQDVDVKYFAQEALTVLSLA
Sequence (chain, as listed by the source, chain 2 of 2): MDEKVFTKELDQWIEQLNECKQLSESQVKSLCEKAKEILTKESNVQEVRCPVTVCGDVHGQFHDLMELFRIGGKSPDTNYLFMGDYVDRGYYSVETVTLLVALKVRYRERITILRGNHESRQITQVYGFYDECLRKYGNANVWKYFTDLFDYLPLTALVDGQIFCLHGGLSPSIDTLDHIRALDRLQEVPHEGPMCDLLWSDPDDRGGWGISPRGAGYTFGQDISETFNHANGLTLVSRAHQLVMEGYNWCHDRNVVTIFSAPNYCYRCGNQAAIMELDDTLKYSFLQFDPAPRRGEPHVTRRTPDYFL

Protein | methyl esterase activity (release of H^3-methanol) | enzyme activity (methyl esterase, release of H^3-methanol)
B1 | the PME core exhibits a similar methyl esterase activity to that of the full-length PME | –
B2 | – | mutation of Ser156 to alanine completely abolished the enzyme activity
B3 | – | mutation to threonine and cysteine retained 10% and 40% of the enzyme activity, respectively
B4 | the PME core exhibits a similar methyl esterase activity to that of the full-length PME | –
B5 | – | mutation to threonine and cysteine retained 10% and 40% of the enzyme activity, respectively
